The text below walks through data of the domain aggregation screens of Martell et al. (2025).

The nature of this series: soluble fraction after stress (log2 fold change); higher = more stays soluble; pooled small domains, quantitative proteomics. The conditions noted are these: stress: 50 degC. The method in brief: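 Pooled custom libraries of small protein domains were each held under stress at 50°C. The read-out, high-throughput quantitative proteomics, tracked how much of each protein stayed soluble. This is reported as a base-two log fold change used to indicate aggregation propensity. Higher values mean more protein remains in solution.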
With “HMGQQPPVTEIYKNHDGNKDGLLEAGEVTGSRYARQFPRWDVNGDQKVSPQEVIAFRKRFGIAADGTLL”, the “soluble fraction (log2)” value was -0.0225. Consider “HMAPVEEWAKASVMEDPTLVTETMARIFAQQGQIGKARKAYRHLALTYPAKSTYFAAQLKKLNQR”, for which the “soluble fraction (log2)” value is -0.259. As to “HMKREETLKALATKNANYVARSGRRYSFEPMNPYERRIIHTAVQEIEGVTSRSIGSGMDRRVLIEPEGGV”, the “soluble fraction (log2)” value is -0.194. Regarding “HMTWIAEIELRLMGNGAVTGAKIVKSTDLKDVDAAIYRAALEASPYPAPESGIGGRFTIKLKY”, the “soluble fraction (log2)” value is 0.198. Turning to “HMQAALEVQASAGVLAPVPPDQRQALLDTLAQDPRPGYQHEAGRVYGFPFGGFEVRFTVSDGLLTVLSAYK”, the “soluble fraction (log2)” value is -1.7. With “HMGLDERNLKLFAASLLEQAGKKITESTMTYLLDKTGSDMENIQNEVEKIIGYTMNHTVVTTEDIDAV”, the “soluble fraction (log2)” value is -0.271.

Consider “HMTATIEEVNELTQSARVNINVPYAAKDEAKAYGAKWDDVERTWYTTGENYAQNKDFFDGFNPTAS”, for which the “soluble fraction (log2)” value was determined as 0.156. “HMGYTPGVVIQKSAILEEINQPDLALGMMLEAVKKDSQNLDILNRLVTLLIDQKKNEDAEIYNKKIIT”: the “soluble fraction (log2)” value amounted to 0.0254.

Take “HMDIADKLTKREFEIFIAIAMNKSRFDIANELGLSAKTVSNGLTVIKRKLNAVPSQFSAIAAKHGYIG”: the “soluble fraction (log2)” value was -2.66. As to “HMNTDIHRLLDEAFVRVDMTPDAQHLKEEIRANLVARVDELEASGVPSADAARRAIAELGDVRELL”, the “soluble fraction (log2)” value was 0.17. The figure for “HMEPALYRLFMAHPELNASAVARRLGIAQSLLAQYISGSKKPSPERERMILTEIHKIGEELATAS” is -0.65; for “HMEQQSIYLENRERMTINQVIDVDAFDEETLWANLKEGAVEISGSGLHIEKLDLAEGVLIVSGIIRAFAYV” it is -0.647. Take “HMIQKTHPALEIVKEYFSSQAASEFEAERFFNYYTSNGWLIGGKTKMKDWQAAARNWILNTAK”: the “soluble fraction (log2)” value was -0.199. As for “HMDVQTVTVIENVNVRKSASENGQKLGLAYTGEKLELLMKQADGWTRVKYNGETAYVKSDYV”, the figure is -0.00354; as for “HMEDKQRRMGELVALLNRAAYAYYTKDEPIMADVQYDRLYDELLSLEKETGVQMADSPTHRV”, -0.173. The figure for “HMTMKNPNGYGSVINLGKGRRRPWAARVTTGLVYDEKKDKLIQRYKYIGYADTRKEAHQILAEYNAGLPI” is -1.43; for “HMGRTITVGIAEDADIKDIAKMLEEKGLISDYRLFVVQELLSAQHDKIKPGIYDLSTDMKAEEMLEILAG” it is -0.541; for “HMQYALEDDLDSAIKLLTGKGLSGTVAWGWSDTYINVGKKSYSMEFIAKMLLRLGEGSRVTIQVDPA” it is -4.68. Regarding “HMITPNQAAVTLKVSTSTLRRWSSDFEPFLSPRKGVKRLYTIEDIATLKRIQGLYKQGMNTAQVQA”, the “soluble fraction (log2)” value is -2.1. Turning to “HMENFDNIFDQRLMPSLFIIRNINQAIENNNNNKFLLNSTISMKDKHWIEIHPHHLKLIISGYQT”, the “soluble fraction (log2)” value was -0.238. As for “HMSHYEYKVGDRVNLLDYDDFGILYKEKDNFYNVVVYYNGEFVEVNVKRITLEVAAKELYPEGYDLSTLFV”, the “soluble fraction (log2)” value was -4.14. As for “HMDDFPLKRGSKGNRVTLLQNALVKKYGAGILPKYGVDGMFGKEVEAALVHAKIPTTINEANYTKIV”, the “soluble fraction (log2)” value came out at 0.0897. As to “HMQSYHVGDKVTIKNSASHWATGQSIYNGVKGHTYKIIQTNGHKLLLDQVISWINDGDVYKAGS”, the “soluble fraction (log2)” value was -0.492. As for “HMLRPEEMIYHEMLDAILDRRLEPGMKLVEEDLAKTFGVSRARIRATFLQLAHDKLINLVPNRGAFVAEP”, the figure is -1.77; as for “HMTGPSYTTRRVEAAETMMEFLRTFPQAAPFIGDLYVKAQDWPLGEEIGDRLKKMLPPQLQE”, -0.519; as for “HMSSLREQVADALRAHLVSGRMRPGVLYSAPKLAAEFGVSATPVREAMLDLVSEGLVDVVRNKGFRVT”, -0.344.

On to “HMIIIMKMGADESQVQETIKRIKDLGFNTHLSKGENRTIIGVIGDVSSIDESDVERLRATPYIAEVVRVS”, for which the “soluble fraction (log2)” value amounted to 0.0267. For “HMSKLIDQELINFFKNQIESKSFRYGVSIEDSYEEIKSNQIKFYGEQEDKLKAIDNAFIELKRERAGIR”, the “soluble fraction (log2)” value was -0.00405.
